Assays:
[1] = tested on: BNA7 from B/Perth/211/2011
[2] = FIG. 50B; design: CLEARANCE (μg/ml): unit not given here
[3] = FIG. 32
[4] = tested on: pseudovirus-derived neuraminidase; type: biochemical, influenza A virus
[5] = biological target: N1 and N2 neuraminidases; type: biochemical, influenza A virus
[6] = biological target: group I (H1N1) IAV, group II (H3N2) IAV, and IBV NAs; type: biochemical, influenza A virus, influenza B virus
[7] = tested on: N9 from A/Anhui/1/2013; type: binding
[8] = biological target: IAV and IBV NA antigens; type: binding, influenza A virus, influenza B virus

Work on FNI9 yielded an IC50 [1] of 23.209 mg/mL.

For FNI9-LS, the “AUC” value [2] was 527.46 ± 75.92 µg·days/mL, the “CLEARANCE (μg/ml)” value [2] was 1.47 ± 0.19 and the “HALF-LIFE” value [2] was 13.37 ± 1.52 days. For the same substance, the “AUCLAST” value [3] was 254.583 µg·days/mL, the “CLss” value [3] was 1.944 mL/day and the “HALF-LIFE” value [3] was 14.198 days. The “LAMBDA_Z” value [3] was 0.05 day⁻¹ and the “Vz” value [3] was 40.281 mL.

In the case of “FNI9-v8.1: FNI9 variant with S28T in VH; VH SEQ ID NO:54, VL SEQ ID NO:8”, the “IC50 for inhibiting sialidase activity in an ELLA assay” value [4] is reported as “lower IC50”, the “IC50 for inhibiting sialidase activity in a MUNANA assay” value [5] is reported as “lower IC50” and the “in vitro inhibition of sialidase activity (reported as IC50)” value [6] is reported as “improved”. The “binding to N9_A_Anhui_2013, assessed by flow cytometry” value [7] was “binds more strongly” and the “affinity by surface plasmon resonance” value [8] was “higher affinity”.

— patent US20260184814A1 (priority 2022, published 2026)
